# In US9283300B2, “Use of midkine protein and the protein-containing medical device” (GENERAL REGENERATIVES, LTD, priority 2009, dated 2016):
# B1: rhMK: recombinant human midkine mature protein (SEQ ID NO.1) expressed in E. coli and purified by ion-exchange chromatography (protein, listed as Homo sapiens)
# chain: MKKKDKVKKGGPGSECAEWAWGPCTPSSKDCGVGFREGTCGAQTQRIRCRVPCNWKKEFGADCKYKFENWGACDGGTGTKVRQGTLKKARYNAQCQETIRVTKPCTPKTKAKAKAKKGKGKD
# Tests used:
# [1] = test system: rat primary articular chondrocyte; assay: MTT proliferation assay, primary chondrocytes in monolayer; format: cell-based; details: for light absorbance at 490 nm in MTT assay: Articular chondrocyte, 48 h, mean ± SD
# Procedure: (§1) 1. Preparation of primary chondrocyte. The 8-week-old male SD rats were sacrificed under sterile conditions. The articular cartilage, fibrocartilage and elastic cartilage tissue were isolated from the femur joints, meniscus and outer ear respectively using a scalpel. The isolated cartilage were cut into small pieces, washed twice with phosphate buffered saline (PBS), and digested with trypsin (0.25% (w/v) trypsin/0.02% (w/v) EDTA) at 37° C. for 30 min. The articular cartilage and elastic cartilage were further digested with 0.2% type II collagenase for additional 16 h, and the fibrocartilage were further digested with 0.15% type I collagenase for additional 16 h. After digestion, three chondrocytes were passed through 100 μm filter (Falcon, USA) into 15 ml centrifuge tubes, centrifuged at room temperature at 2000 rpm for 5 min. Cells were resuspended in DMEM containing 10% FBS (fetal bovine serum). Trypan blue staining of the freshly isolated cells was used to monitor the percentage of live cells under the microscope. When the number of live cells is more than 95%, it was used for subsequent experiments.
# (§2) 2. MTT assay. Three types of primary chondrocytes were suspended at a density of 5×10^4 cells/ml in DMEM containing 10% FBS. Cells were seeded into a 96-well plate (100 μl per well) and cultured at 37° C. under 5% CO2 for 48 h. The cells were washed with serum-free DMEM medium once. Different concentrations of rhMK (0.5, 1.0, 3.0, 5.0, 9.0 μg/ml) in DMEM (containing 0.5% FBS) were added to each well and the cells were cultured for additional 48 h. After incubation, the medium was replaced with 100 μl serum-free DMEM medium and 20 μl MTT solution (0.5 mg/ml, in PBS), incubated at 37° C. under 5% CO2 for 4 h. After removing the liquid, 120 μl DMSO was added to dissolve the MTT crystals by shaking for 1 min on a micro-plate oscillator. Light absorbance at 490 nm was measured using a microplate reader (BIO-TEK, USA).
# [2] = test system: rat primary fibrochondrocyte; assay: as above; format: cell-based; details: for light absorbance at 490 nm in MTT assay: Fibrochondrocyte, 48 h, mean ± SD
# Procedure: as §1, §2
# [3] = test system: rat primary auricular (ear elastic cartilage) chondrocyte; assay: as above; format: cell-based; details: for light absorbance at 490 nm in MTT assay: Auricular chondrocyte, 48 h, mean ± SD
# Procedure: as §1, §2
# [4] = test system: cartilage of normal New Zealand rabbit (articular, ear, tracheal, intervertebral disc); assay: rhMK effect on cartilage thickness of normal rabbits (subcutaneous injection, histology); format: in vivo; details: rhMK 92.5 μg/kg s.c. daily for two weeks
# Procedure: Method. 8-weeks-old male C57BL/6J mice were injected subcutaneously with recombinant human MK (rhMK) or control saline. The injection volume was 0.5 ml, given daily for a week. The mice were grouped (3 animals per group): Saline (NS) group, rhMK groups injected with various dosages at 10, 33, 100, 300, 900 μg/kg. Rats were injected with saline or rhMK (175 μg/kg) daily for a week. Rabbits were injected with saline or rhMK (92.5 μg/kg) daily for two week. Histological observation and evaluation. The knee joint tissues of all mice and rats were fixed in 10% (v/v) formalin for 1 day, the tissues of rabbits were fixed for 2 days. The fixed tissues were subjected to demineralization in liquid (7% AlCl3.6H2O, 5% methanoic acid, 8.5% HCl) 4 days for mouse and rats issues, and 10 days for rabbit tissues. The demineralized tissues were subjected to dehydration by gradient ethanol, and treated for transparency by xylene, and embedded in wax. Tissue sections were prepared by the paraffin slicing machine (Laica), and stained with hemotoxylin/eosin or Safranine O/fast green staining. Slides were observed under microscope and analyzed. The thickness of cartilage tissues were measured by the vernier caliper on microscope. Three tissue sections from each sample were measured and analyzed statisticaly. The distance between surface of cartilage to subchondral tide line was measured at ½ position of femoral condyle to denote the thickness of knee-joint cartilage. The thickness of cartilage at central part of ears was measured to denote the thickness of ear elastic cartilage. The distance between out surface of annulus to nucleus of the intervertebral disc was measured to denote the thickness of thoracic intervertebral disc (T2-3). To verify the results of rhMk in mice, we performed the same experiments in vivo using commonly used laboratory animals, rat and rabbit. Rats were injected subcutaneously with rhMK at 175 μg/kg/day for one week, and rabbits was injected subcutaneously 92.5 ug/kg/day for two weeks. […] The injection dose of rhMK: mice was injected subcutaneously 300 μg/kg daily for a week; rats were injected 175 μg/kg daily for a week; and New Zealand rabbits was injected 92.5 μg/kg daily for two weeks. Three animals per group were analyzed.
# [5] = test system: full-thickness defect of rabbit knee articular cartilage; assay: Full-thickness cartilage defect of rabbit knee joint, intra-articular rhMK; format: in vivo, New Zealand white rabbits; details: rabbit knee full-thickness cartilage damage model, 18 samples, 13 recovered; no recovery in saline control sides, P<0.01
# Procedure: Method. 2-month-old male New Zealand white rabbits (2.0˜2.5 kg weight) were anesthetized with 3% pentobarbital sodium (30 mg/kg) by ear vein injection. After anesthesia, prepare the skin on both sides of the knees were prepared for sterilization. With conventional surgical sterilization and under sterile conditions, the inner side of knees was cut to expose the femoral condyle surface. The full-thickness cartilage injury was made on the femoral condyle surface for both sides of the rabbit knees using an electrical drill. The cartilage hole was 3 mm in diameter and 4 mm in depth. The wound was closed with 4-0 lines. 400,000 units penicillin was injected daily for one week to prevent the wound site infection. 24 hours after surgery, normal saline or rhMK was injected into the knee articular cavity. The injection volume was 0.5 ml, three times a week for 2 weeks. rhMK was injected into one side of the rabbit knee joint, the other side was injected with saline as control. The rabbits were kept in cages and moved freely without fixation of the injured knees. After 2, 4, 6 and 12 weeks, rabbits were sacrificed. Cartilage tissues of the knee joint were removed for routine biopsy. The tissue sections were prepared for H&E, and fast green—Safranin O staining. The histological observation and evaluation were conducted under microscope.
molecule,measurement,setting,value
B1,light absorbance at 490 nm in MTT assay,[1]; rhMK 0.5 μg/ml,0.33 ± 0.02
same,light absorbance at 490 nm in MTT assay,[1]; rhMK 1.0 μg/ml,0.40 ± 0.01
same,light absorbance at 490 nm in MTT assay,[1]; rhMK 3.0 μg/ml,0.38 ± 0.01
same,light absorbance at 490 nm in MTT assay,[1]; rhMK 5.0 μg/ml,0.30 ± 0.01
same,light absorbance at 490 nm in MTT assay,[1]; rhMK 9.0 μg/ml,0.39 ± 0.01
same,"lowest effective dose of rhMK (proliferation, MTT)","[1]; articular chondrocytes, monolayer",1 µg/mL
same,light absorbance at 490 nm in MTT assay,[2]; rhMK 0.5 μg/ml,0.42 ± 0.02
same,light absorbance at 490 nm in MTT assay,[2]; rhMK 1.0 μg/ml,0.43 ± 0.02
same,light absorbance at 490 nm in MTT assay,[2]; rhMK 3.0 μg/ml,0.47 ± 0.00
same,light absorbance at 490 nm in MTT assay,[2]; rhMK 5.0 μg/ml,0.45 ± 0.00
same,light absorbance at 490 nm in MTT assay,[2]; rhMK 9.0 μg/ml,0.45 ± 0.00
same,"lowest effective dose of rhMK (proliferation, MTT)","[2]; fibrochondrocyte, monolayer",3 µg/mL
same,light absorbance at 490 nm in MTT assay,[3]; rhMK 0.5 μg/ml,0.52 ± 0.05
same,light absorbance at 490 nm in MTT assay,[3]; rhMK 1.0 μg/ml,0.54 ± 0.02
same,light absorbance at 490 nm in MTT assay,[3]; rhMK 3.0 μg/ml,0.56 ± 0.01
same,light absorbance at 490 nm in MTT assay,[3]; rhMK 5.0 μg/ml,0.56 ± 0.02
same,light absorbance at 490 nm in MTT assay,[3]; rhMK 9.0 μg/ml,0.56 ± 0.02
same,"lowest effective dose of rhMK (proliferation, MTT)","[3]; ear elastic cartilage cells, monolayer",0.5 µg/mL
same,"Cartilage thickness, Ear",[4],605.4 ± 5.4 µm
same,"Cartilage thickness, Femoral condyle",[4],612 ± 6.4 µm
same,"Cartilage thickness, Intervertbral disc (T2-3)",[4],1520 ± 54 µm
same,"Cartilage thickness, Trachea",[4],495 ± 6.5 µm
same,rate of recovery in the rhMK treated side,[5],72.2%
